The target in assay [1] is CLAVATA2 (CLV2; At1g65380) (Arabidopsis) (UniProt O80809). Kind of assay: cell-based or functional assay.
Assay [2] concerns the target CORYNE (CRN; At5g13290) (Arabidopsis) (UniProt Q9LYU7). Kind of assay: cell-based or functional assay.
Chain of UniProt Q9LYU7 (Q9LYU7 34-401): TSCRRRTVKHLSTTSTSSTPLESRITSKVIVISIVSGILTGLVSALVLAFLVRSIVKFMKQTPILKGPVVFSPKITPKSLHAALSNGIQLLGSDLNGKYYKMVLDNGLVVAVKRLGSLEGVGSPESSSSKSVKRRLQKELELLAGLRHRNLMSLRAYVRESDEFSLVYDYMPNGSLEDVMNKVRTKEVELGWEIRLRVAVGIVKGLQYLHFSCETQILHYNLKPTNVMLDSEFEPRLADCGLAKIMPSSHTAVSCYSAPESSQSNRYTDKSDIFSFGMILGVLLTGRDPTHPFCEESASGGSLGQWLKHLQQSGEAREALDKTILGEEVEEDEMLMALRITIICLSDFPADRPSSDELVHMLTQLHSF

Chain of UniProt O80809 (O80809 26-720): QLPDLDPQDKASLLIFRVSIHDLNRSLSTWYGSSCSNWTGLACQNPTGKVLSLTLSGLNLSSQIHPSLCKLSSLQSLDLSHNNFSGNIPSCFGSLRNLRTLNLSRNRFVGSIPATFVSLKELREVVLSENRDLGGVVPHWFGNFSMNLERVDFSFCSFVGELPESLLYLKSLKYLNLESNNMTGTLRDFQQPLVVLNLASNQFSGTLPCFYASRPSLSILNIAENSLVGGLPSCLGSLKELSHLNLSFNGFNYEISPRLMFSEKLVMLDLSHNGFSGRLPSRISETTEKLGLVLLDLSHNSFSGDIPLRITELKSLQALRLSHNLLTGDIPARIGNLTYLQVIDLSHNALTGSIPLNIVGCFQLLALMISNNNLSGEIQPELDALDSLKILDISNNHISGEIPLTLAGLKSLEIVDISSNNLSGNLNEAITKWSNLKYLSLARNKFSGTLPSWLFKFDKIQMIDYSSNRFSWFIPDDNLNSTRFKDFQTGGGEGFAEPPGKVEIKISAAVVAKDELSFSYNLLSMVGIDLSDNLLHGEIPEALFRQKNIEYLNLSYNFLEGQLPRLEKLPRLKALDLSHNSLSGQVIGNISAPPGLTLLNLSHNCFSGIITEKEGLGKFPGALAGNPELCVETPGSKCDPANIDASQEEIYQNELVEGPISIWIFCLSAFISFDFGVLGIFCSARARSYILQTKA

As for “HsCLE2 (beet cyst nematode CLE protein, overexpressed in Arabidopsis) (ligand)”, the wus-like (%) T1 shoot phenotypes, overexpression in clv2-1 in assay [1] was 0%. The substance further registered a wus-like (%) T1 shoot phenotypes, overexpression in crn-1 in assay [2] of 0%.

In turn, “HsCLE1 (beet cyst nematode CLE protein, overexpressed in Arabidopsis) (ligand)” registered a wus-like (%) T1 shoot phenotypes, overexpression in clv2-1 in assay [1] of 0%. For the same substance, in assay [2], the wus-like (%) T1 shoot phenotypes, overexpression in crn-1 was 0%.

“HgCLE2ΔSP (soybean cyst nematode CLE protein, overexpressed in Arabidopsis) (ligand)”: in assay [1], the wus-like (%) T1 shoot phenotypes, overexpression in clv2-1 was 0%. In addition, in assay [2], the wus-like (%) T1 shoot phenotypes, overexpression in crn-1 was found to be 0%.

Source of the values: patent publication US20130326736A1.
